Ends that are not written are not given here.
Assays:
[1] = target: T1, microtubule-associated protein 1A/1B light chain 3B protein (human, UniProt Q9GZQ8 1-120); assay: fluorescence polarisation
[2] = target: GABARAP (human, UniProt O95166 1-117); assay: BLI
[3] = target: T1, microtubule-associated protein 1A/1B …; assay: BLI

Sequence of GABARAP (O95166 whole entry): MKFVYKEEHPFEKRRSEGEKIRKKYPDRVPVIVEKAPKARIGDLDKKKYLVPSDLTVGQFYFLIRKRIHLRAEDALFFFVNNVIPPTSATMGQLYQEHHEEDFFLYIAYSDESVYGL

B1: fluorescein-labeled K1 peptide (peptide)
peptide: Fluorescein-DATYTWEHLAWP
B1 was tested. Which Kd [1] did it give?
Its Kd is 1200 nM.

B2: biotinylated K1 peptide (peptide)
peptide: DATYTWEHLAWP
HELM: PEPTIDE1{[O=C1N[C@H]2[C@H](CS[C@H]2CCCCC(=O)[*:2])N1].[bAla].[bAla].D.A.T.Y.T.W.E.H.L.A.W.P.[am]}$$$$V2.0
SMILES: CC(C)C[C@H](NC(=O)[C@H](Cc1c[nH]cn1)NC(=O)[C@H](CCC(=O)O)NC(=O)[C@H](Cc1c[nH]c2ccccc12)NC(=O)[C@@H](NC(=O)[C@H](Cc1ccc(O)cc1)NC(=O)[C@@H](NC(=O)[C@H](C)NC(=O)[C@H](CC(=O)O)NC(=O)CCNC(=O)CCNC(=O)CCCC[C@@H]1SC[C@@H]2NC(=O)N[C@@H]21)[C@@H](C)O)[C@@H](C)O)C(=O)N[C@@H](C)C(=O)N[C@@H](Cc1c[nH]c2ccccc12)C(=O)N1CCC[C@H]1C(N)=O
For B2, which Kd [2] is on record?
Its Kd is 390 nM.

B3: FYCO1 peptide C1289S (peptide)
peptide: DDAVFDIITDEELSQIQEW
HELM: PEPTIDE1{[O=C1N[C@H]2[C@H](CS[C@H]2CCCCC(=O)[*:2])N1].[bAla].[bAla].D.D.A.V.F.D.I.I.T.D.E.E.L.S.Q.I.Q.E.W.[am]}$$$$V2.0
SMILES: CC[C@H](C)[C@H](NC(=O)[C@H](CCC(N)=O)NC(=O)[C@H](CO)NC(=O)[C@H](CC(C)C)NC(=O)[C@H](CCC(=O)O)NC(=O)[C@H](CCC(=O)O)NC(=O)[C@H](CC(=O)O)NC(=O)[C@@H](NC(=O)[C@@H](NC(=O)[C@@H](NC(=O)[C@H](CC(=O)O)NC(=O)[C@H](Cc1ccccc1)NC(=O)[C@@H](NC(=O)[C@H](C)NC(=O)[C@H](CC(=O)O)NC(=O)[C@H](CC(=O)O)NC(=O)CCNC(=O)CCNC(=O)CCCC[C@@H]1SC[C@@H]2NC(=O)N[C@@H]21)C(C)C)[C@@H](C)CC)[C@@H](C)CC)[C@@H](C)O)C(=O)N[C@@H](CCC(N)=O)C(=O)N[C@@H](CCC(=O)O)C(=O)N[C@@H](Cc1c[nH]c2ccccc12)C(N)=O
B3 was tested. Which Kd [3] did it give?
Its Kd is 330 nM.

From PMC7872222 (Chembiochem : a European journal of chemical biology, 2020)
